From paper PMC4067530, “Evidence for a DNA-relay mechanism in ParABS-mediated chromosome segregation” (eLife, 2014)
Blank lines part the entries; values can stand above or below the molecule they belong to.

What was measured:
[1] = target: Caulobacter crescentus ParA R195E (DNA-binding deficient mutant) (C. crescentus); assay: SEC; +ATP: ParA freed of ATP (EDTA, buffer exchange), then mixed with 2.5 mM Mg-ATP, 10 min at room temperature; 50 µl at approximately 50 µM on Superdex 75 10/300 GL in 25 mM Hepes/KOH pH 7.5, 150 mM KGlu, 5 mM MgSO4, 2 mM Mg-ATP, 0.1 mM EDTA, 1 mM DTT; monomer to dimer
ParA = target: T1, ParA (Caulobacter vibrioides, UniProt B8GW31, R195E); assay: size exclusion chromatography (ATP-dependent dimerization); type: binding; settings: 2.5 mM Mg-ATP, pH 7.5, 150 mM potassium glutamate; mutant does not bind DNA
T1 construct: full length, recombinant from E. coli BL21(DE3), pET24HT-ParA, His6 tag removed by TEV protease

[2] = target: Caulobacter crescentus ParA (wild type) (C. crescentus); assay: SEC; +ATP: ParA freed of ATP (EDTA, buffer exchange), then mixed with 2.5 mM Mg-ATP, 10 min at room temperature; 50 µl at approximately 50 µM on Superdex 75 10/300 GL in 25 mM Hepes/KOH pH 7.5, 150 mM KGlu, 5 mM MgSO4, 2 mM Mg-ATP, 0.1 mM EDTA, 1 mM DTT; monomer to dimer
[3] = target: Caulobacter crescentus ParA (wild type) (C. crescentus)
[4] = target: Caulobacter crescentus ParA (wild type) (C. crescentus); remark: listed apart in the source
[5] = target: Caulobacter crescentus ParB-His6 (wild type) (C. crescentus); assay: SEC-MALS; SEC-UV/LS/RI; purified His6-ParB on Superose 6 10/30 HR in 100 mM HEPES pH 7.4, 150 mM NaCl, 1 mM DTT, 0.3 ml/min; monomer to dimer
[6] = substrate: Nc1ncnc2c1ncn2[C@@H]1O[C@H](COP(=O)(O)OP(=O)(O)OP(=O)(O)O)[C@@H](O)[C@H]1O; assay: NADH-coupled ATPase assay (pyruvate kinase/lactate dehydrogenase); type: biochemical, Caulobacter vibrioides; settings: 10 µM ParA, 1.5 mg/ml salmon sperm DNA, no ParB, 10 mM MgSO4, 150 mM potassium glutamate, pH 7.4, 30 °C
From the text: NADH-coupled ATPase assay (pyruvate kinase/lactate dehydrogenase) on ParA | ATPase activity was dependent on the concentration of ATP (Figure 1E), resulting in a KM

T1 sequence (B8GW31 whole entry R195E): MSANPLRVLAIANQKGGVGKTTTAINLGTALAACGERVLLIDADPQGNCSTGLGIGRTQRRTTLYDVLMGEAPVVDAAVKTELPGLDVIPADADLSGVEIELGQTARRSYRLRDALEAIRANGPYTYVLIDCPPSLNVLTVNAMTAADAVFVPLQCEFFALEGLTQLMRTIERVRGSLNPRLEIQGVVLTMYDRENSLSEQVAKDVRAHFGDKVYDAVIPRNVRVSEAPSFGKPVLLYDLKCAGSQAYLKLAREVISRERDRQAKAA

stoichiometry N [1]: 2
Molecule: Caulobacter crescentus ParA R195E (DNA-binding deficient mutant) (enzyme)

Molecule: Nc1ncnc2c1ncn2[C@@H]1O[C@H](COP(=O)(O)OP(=O)(O)OP(=O)(O)O)[C@@H](O)[C@H]1O [ATP]
size exclusion chromatography (ATP-dependent dimerization) (ParA): ParAR195E mutant (Figure 1C), which can still dimerize upon ATP binding (Figure 1A)

stoichiometry N [2]: 2
Molecule: Caulobacter crescentus ParA (wild type) (enzyme)

ParA (3 µM) ATPase activity against ParB concentration in the presence of DNA, Michaelis–Menten fit: apparent K (ParB) [3]: 80 µM
ParA ATPase activity (NADH-coupled assay) with DNA, increase on adding ParB (60 µM) [4]: 10 fold
stoichiometry N [5]: 2
Molecule: Caulobacter crescentus ParB-His6 (wild type) (natural protein)

B1: ParA (Caulobacter vibrioides NA1000) (protein)
chain: MSANPLRVLAIANQKGGVGKTTTAINLGTALAACGERVLLIDADPQGNCSTGLGIGRTQRRTTLYDVLMGEAPVVDAAVKTELPGLDVIPADADLSGVEIELGQTARRSYRLRDALEAIRANGPYTYVLIDCPPSLNVLTVNAMTAADAVFVPLQCEFFALEGLTQLMRTIERVRGSLNPRLEIQGVVLTMYDRRNSLSEQVAKDVRAHFGDKVYDAVIPRNVRVSEAPSFGKPVLLYDLKCAGSQAYLKLAREVISRERDRQAKAA
notes: full length, recombinant from E. coli BL21(DE3), pET24HT-ParA, His6 tag removed by TEV protease
Km [6]: 150 µM
kcat [6]: 0.00164 s⁻¹
